# Reference: article PMC8633249 (2021)
# B1: K2hPg, kringle-2 domain of human plasminogen (domain or fragment)
# chain: YVEFSEECMHGSGENYDGKISKTMSGLECQAWDSQSPHAHGYIPSKFPNKNLKKNYCRNPDRDLRPWCFTTDPNKRWEYCDIPRCAA
# Tests used:
# [1] = biological target: T1, AGL55, 55-mer A-domain peptide of PAM_(NS88.2) (Streptococcus pyogenes (GAS isolate …)); experiment: ITC; 25°C
# [2] = biological target: T1, AGL55, 55-mer A-domain peptide of …; experiment: ITC; 37°C
# [3] = biological target: T1, AGL55, 55-mer A-domain peptide of …; experiment: ITC; 4°C
binder,measurement,setting,value
B1,Kd,[1],31 nM
same,Kd,[2],236 nM
same,Kd,[3],2.6 nM
